Data from patent US10704030B2, “P450-BM3 variants with improved activity” (Codexis, Inc., priority 2015, dated 2020).
Substitutions are numbered along the chain they refer to. In names and notes the source's numbering stands.

B1: Variant 8: P450-BM3 variant of SEQ ID NO: 2: D118R; L219Y; K236H; S353T; N579T; T582A; E624D; D727S (protein)
chain: MLMKQASAIPQPKTYGPLKNLPHLEKEQLSQSLWRIADELGPIFRFDFPGVSSVFVSGHNLVAEVCDEERFDKSIEGALEKVRAFSGDGLATSWTHEPNWRKAHNILMPTFSQRAMKRYHEKMVDIATQLIQKWSRLNPNEEIDVADDMTRLTLDTIGLCGFNYRFNSFYRDQPHPFITSMVRALDEAMNKLQRANPDDPAYDENKRQFQEDIKVMNDYVDSIIAERRANGDQDEHDLLARMLNVEDPETGEKLDDENIRFQIITFLIAGHETTSGLLSFAIYCLLTHPEKLKKAQEEADRVLTDDTPEYKQIQQLKYIRMVLNETLRLYPTAPAFSLYAKEDTVLGGEYPITKGQPVTVLIPKLHRDQNAWGPDAEDFRPERFEDPSSIPHHAYKPFGNGQRACIGMQFALQEATMVLGLVLKHFELINHTGYELKIKEALTIKPDDFKITVKPRKTAAINVQRKEQAEQSAKKVRKKAENAHNTPLLVLYGSNMGTAEGTARDLADIAMSKGFAPQVATLDSHAGNLPREGAVLIVTASYNGHPPDNAKQFVDWLDQASADEVKGVRYSVFGCGDKTWAATYQKVPAFIDETLAAKGAENIADRGEADASDDFEGTYEEWRDHMWSDVAAYFNLDIENSEDNKSTLSLQFVDSAADMPLAKMHGAFSTNVVASKELQQPGSARSTRHLEIELPKEASYQEGDHLGVIPRNYEGIVNRVTARFGLSASQQIRLEAEEEKLAHLPLAKTVSVEELLQYVELQDPVTRTQLRAMAAKTVCPPHKVELEALLEKQAYKEQVLAKRLTMLELLEKYPACEMKFSEFIALLPSIRPRYYSISSSPRVDEKQASITVSVVSGEAWSGYGEYKGIASNYLAELQEGDTITCFISTPQSEFTLPKDPETPLIMVGPGTGVAPFRGFVQARKQLKEQGQSLGEAHLYFGCRSPHEDYLYQEELENAQSEGIITLHTAFSRMPNQPKTYVQHVMEQDGKKLIELLDQGAHFYICGDGSQMAPAVEATLMKSYADVHQVSEADARLWLQQLEEKGRYAKDVWAG
modifications: P450_BM3
notes: L219Y; K236H; S353T; N579T; T582A; E624D; D727S
B2: SEQ ID NO: 8: P450-BM3 parental backbone from the commercially available MCYP panel (MCYP-0343; Codexis) (protein)
chain: MTIKEMPQPKTFGELKNLPLLNTDKPVQALMKIADELGEIFKFEAPGRVTRYLSSQRLIKEACDESRFDKNLSQALKFARDFAGDGLFTSWTHEKNWKKAHNILLPSFSQQAMKGYHAMMVDIAVQLVQKWERLNADEYIEVPEDMTRLTLDTIGLCGFNYRFNSFYRDQPHPFIISMIRALDEVMNKLQRANPDDPAYDENKRQFQEDIKVMNDLVDKIIADRKASGEQSDDLLTQMLNGKDPETGEPLDDGNISYQIITFLIAGHETTSGLLSFALYFLVKNPHVLQKVAEEATRVLVDPVPSYKQVKQLKYVGMVLNEALRLWPTAPAFSLYAKEDTVLGGEYPLEKGDEVMVLIPQLHRDKTIWGDDVEEFRPERFENPSAIPQHAFKPFGNGQRACIGQQFALHEATLVLGMMLKHFDFEDHTNYELDIKETLTLKPEGFVVKAKSKKIPLGGIPSPSTEQSAKKVRKKAENAHNTPLLVLYGSNMGTAEGTARDLADIAMSKGFAPQVATLDSHAGNLPREGAVLIVTASYNGHPPDNAKQFVDWLDQASADEVKGVRYSVFGCGDKNWATTYQKVPAFIDETLAAKGAENIADRGEADASDDFEGTYEEWREHMWSDVAAYFNLDIENSEDNKSTLSLQFVDSAADMPLAKMHGAFSTNVVASKELQQPGSARSTRHLEIELPKEASYQEGDHLGVIPRNYEGIVNRVTARFGLDASQQIRLEAEEEKLAHLPLAKTVSVEELLQYVELQDPVTRTQLRAMAAKTVCPPHKVELEALLEKQAYKEQVLAKRLTMLELLEKYPACEMKFSEFIALLPSIRPRYYSISSSPRVDEKQASITVSVVSGEAWSGYGEYKGIASNYLAELQEGDTITCFISTPQSEFTLPKDPETPLIMVGPGTGVAPFRGFVQARKQLKEQGQSLGEAHLYFGCRSPHEDYLYQEELENAQSEGIITLHTAFSRMPNQPKTYVQHVMEQDGKKLIELLDQGAHFYICGDGSQMAPAVEATLMKSYADVHQVSEADARLWLQQLEEKGRYAKDVWAG
modifications: P450_BM3
B3: Variant 9: P450-BM3 variant of SEQ ID NO: 8: Y52F; D232H; E349K; E619D; D722S; R762H (protein)
chain: B2 chain with Y52F, D232H, E349K, E619D, D722S, R762H
modifications: P450_BM3
notes: D232H; E349K; E619D; D722S; R762H

Assay: Validation of generalist properties: oxidation of diclofenac by lyophilized P450-BM3 variant, UPLC-MS
Format: biochemical
Conditions: [Diclofenac] = 1 mM
Procedure: (§1) For the production of lyophilized protein powders, LB agar plates supplemented with chloramphenicol (30 μg/mL) were streaked with E. coli containing a desired B. megaterium P450-BM3 variant in an IPTG-inducible vector. The plates were grown at 37° C. for 16 hrs before single clones were selected to inoculate a 15 mL Falcon™ tube (Fisher) containing TB media (3 mL) supplemented with chloramphenicol (30 μg/mL). The tube was shaken at 200 rpm, 30° C., and 85% humidity for 20-24 h to grow the cultures to saturation. Then, 2.5 mL of the overnight culture was used to inoculate sterile 1 L flasks containing TB medium (250 mL) supplemented with chloramphenicol (30 μg/mL), trace element solution (as described above), and 0.05 g/L ammonium iron (III) citrate. After being shaken at 250 rpm, 30° C., and 85% humidity to an OD600 of 0.8-1.2, P450 expression was induced by addition of IPTG (500 uM) and the heme precursor 5-aminolevulinic acid (5-ALA) to a final concentration of 500 uM. The cultures were grown for additional 20-24 hours and centrifuged in pre-weighed 250 mL centrifuge bottles for 20 minutes at 4000 rpm, 4° C. The supernatants were discarded, and the centrifuge bottles containing cell pellets were weighed. The pellets were resuspended in 50 mM potassium phosphate buffer with 2 mM DTT, pH 8.0 (5 mL of buffer per gram of cell pellet). The cells were lysed using a microfluidizer homogenizer, and the suspensions of cells and lysate were collected in sterile 50 mL centrifuge tubes. The samples were centrifuged for 30 minutes at 10,000 rpm, 4° C. The clarified lysate was collected into a plastic petri plate and frozen at −80° C. prior to lyophilization. The enzyme-containing lysates were lyophilized using standard methods known in the art.
(§2) Enzyme stocks (˜12 μM) were prepared by dissolving ˜20 mg of each enzyme in 100 mM potassium phosphate buffer, pH 8.0 (1 mL). The concentration of each enzyme stock solution was determined by the UV-visible absorption spectroscopy (after centrifugation to remove particulates) and diluted to standardize at 12 μM heme protein. Substrate solutions were prepared by dissolving each substrate in DMSO to reach a final concentration of 20 mM or 40 mM. Reaction mix (235 μL) followed by enzyme solution (50 μL) was added to the plates. The substrate stock solution was added to the enzyme solutions (15 μL at the two different concentrations). Each reaction contained 100 mM potassium phosphate, 1.0 mM NADP+, 25 mM glucose, 0.5 mg/mL glucose dehydrogenase, 5% DMSO and substrate at 1 or 2 mM. Loratadine, imatinib, and gefitinib (See, FIG. 1) were selected as substrates in addition to diclofenac to validate improved BM3 variants. The reactions were shaken at 450 rpm at 30° C. over 24 hours. All reactions were diluted with acetonitrile to a final concentration of 0.5 mM substrate. The plates were then centrifuged at 3,000 g for 1 hour at 20° C. The supernatant was diluted 1:1 with acetonitrile, filtered using a 0.4 micron filter, and analyzed by UPLC-MS.
(§3) For UPLC-MS analysis, the quenched and filtered reactions were transferred to 96-well HTP plates for analysis by UPLC on a Waters Acquity H-class system equipped with an autosampler. 1 uL of quenched sample was injected onto an Acquity UPLC HSS T3 column, 100 Å, (1.8 um; 2.1×100 mm). The column was eluted at a constant flow rate of 0.6 mL/min; conditions with solvent A (0.05% trifluoroacetic acid v/v, in H2O) and solvent B (0.05% trifluoroacetic acid v/v, in acetonitrile) used to elute the products of the reaction were: 0-2 min, A/B 95:5; 2-2.9 min, A/B 5:95; 2.9-3 min, A/B 95:5; 3-3.5 min, A/B 95:5. Column eluent was monitored by PDA (200-600 nm) prior to MS analysis in positive ESI mode (desolvation temperature 350° C., 3.25 kV spray voltage, cone voltage 25V). The column eluent was diverted to waste for the first 0.7 minutes of the run. For the remainder of the LC run, both MS (m/z 95-600 scan range) and MS/MS were collected. […]

Molecule | % Conv.
B1 | + (0-5.00)
B2 | ++ (5.01-10.00)
B3 | ++++ (15.01-20.00)

Same assay, conditions: [Diclofenac] = 1 mM; TON = [substrate]*% conversion/[P450]

Molecule | TON
B1 | ‡‡ (1001-5000)
B2 | ‡‡ (1001-5000)
B3 | ‡‡‡ (5001-10000)

Same assay, conditions: [Diclofenac] = 1 mM; fold improvement over parent MCYP-1.2-A05

Molecule | FIOPC (A05)
B1 | **** (10.01-15.00)

Same assay, conditions: [Diclofenac] = 1 mM; fold improvement over parent MCYP-P1.2-B02

Molecule | FIOPC (B02)
B3 | * (0.0-3.0)

Assay: Validation of generalist properties: oxidation of loratadine by lyophilized P450-BM3 variant, UPLC-MS
Format: biochemical
Conditions: [Loratadine] = 1 mM
Procedure: as §1, §2, §3

Molecule | % Conv.
B1 | ++ (5.01-10.00)
B2 | ++ (5.01-10.00)
B3 | ++ (5.01-10.00)

Same assay, conditions: [Loratadine] = 1 mM; TON = [substrate]*% conversion/[P450]

Molecule | TON
B1 | ‡‡ (1001-5000)
B2 | ‡‡ (1001-5000)
B3 | ‡‡ (1001-5000)

Same assay, conditions: [Loratadine] = 1 mM; fold improvement over parent MCYP-1.2-A05

Molecule | FIOPC (A05)
B1 | **** (10.01-15.00)

Same assay, conditions: [Loratadine] = 1 mM; fold improvement over parent MCYP-P1.2-B02

Molecule | FIOPC (B02)
B3 | * (0.0-3.0)

Assay: Validation of generalist properties: oxidation of imatinib by lyophilized P450-BM3 variant, UPLC-MS
Format: biochemical
Conditions: [Imatinib] = 1 mM
Procedure: as §1, §2, §3

Molecule | % Conv.
B1 | ++++ (15.01-20.00)
B2 | ++++ (15.01-20.00)
B3 | ++++ (15.01-20.00)

Same assay, conditions: [Imatinib] = 1 mM; TON = [substrate]*% conversion/[P450]

Molecule | TON
B1 | ‡‡‡ (5001-10000)
B2 | ‡‡‡‡ (10000-50000)
B3 | ‡‡‡‡ (10000-50000)

Same assay, conditions: [Imatinib] = 1 mM; fold improvement over parent MCYP-1.2-A05

Molecule | FIOPC (A05)
B1 | * (0.0-3.0)

Same assay, conditions: [Imatinib] = 1 mM; fold improvement over parent MCYP-P1.2-B02

Molecule | FIOPC (B02)
B3 | * (0.0-3.0)

Assay: Validation of generalist properties: oxidation of gefitinib by lyophilized P450-BM3 variant, UPLC-MS
Format: biochemical
Conditions: [Gefitinib] = 1 mM
Procedure: as §1, §2, §3

Molecule | % Conv.
B1 | + (0-5.00)
B2 | + (0-5.00)
B3 | + (0-5.00)

Same assay, conditions: [Gefitinib] = 1 mM; TON = [substrate]*% conversion/[P450]

Molecule | TON
B1 | ‡ (0-1000)
B2 | ‡ (0-1000)
B3 | ‡ (0-1000)

Same assay, conditions: [Gefitinib] = 1 mM; fold improvement over parent MCYP-1.2-A05

Molecule | FIOPC (A05)
B1 | * (0.0-3.0)

Same assay, conditions: [Gefitinib] = 1 mM; fold improvement over parent MCYP-P1.2-B02

Molecule | FIOPC (B02)
B3 | * (0.0-3.0)
